T1: PRAME peptide on HLA-A*02:01 (human)
T1 peptide: SLLQHLIGL

B1: AAV46 SLL (TCR, V domains shown)
Valpha: GQQLNQSPQSMFIQEGEDVSMNCTSSSIFNTWLWYKQDPGEGPVLLIALYKAGELTSNGRLTAQFGITRKDSFLNISASIPSDVGIYFCAGIPRDNYGQNFVFGPGTRLSVLP
Vbeta: DVKVTQSSRYLVKRTGEKVFLECVQDMDHENMFWYRQDPGLGLRLIYFSYDVKMKEKGDIPEGYSVSREKKERFSLILESASTNQTSMYLCASTPWLAGGNEQFFGPGTRLTVL
B2: AAV54 SLL (TCR, V domains shown)
Valpha: AQSVTQLGSHVSVSERALVLLRCNYSSSVPPYLFWYVQYPNQGLQLLLKYTSAATLVKGINGFEAEFKKSETSFHLTKPSAHMSDAAEYFCAVSGQTGANNLFFGTGTRLTVIP
Vbeta: DSGVTQTPKHLITATGQRVTLRCSPRSGDLSVYWYQQSLDQGLQFLIQYYNGEERAKGNILERFSAQQFPDLHSELNLSSLELGDSALYFCASARWDRGGEQYFGPGTRLTVT
B3: F404A (protein)
chain: GFGDVGALESLRGNADLAYILSMEPCGHCLIINNVNFCRESGLRTRTGSNIDCEKLRRRFSSLHFMVEVKGDLTAKKMVLALLELAQQDHGALDCCVVVILSHGCQASHLQFPGAVYGTDGCPVSVEKIVNIFNGTSCPSLGGKPKLFFIQACGGEQKDHGFEVASTSPEDESPGSNPEPDATPFQEGLRTFDQLDAISSLPTPSDIFVSYSTFPGFVSWRDPKSGSWYVETLDDIFEQWAHSEDLQSLLLRVANAVSVKGIYKQMPGCANFLRKKLFFKTS
B4: D330A-Y153F (protein)
chain: B3 chain with Y19F, D196A, A270F
B5: D330A-Y153A (protein)
chain: B3 chain with Y19A, D196A, A270F
B6: F404S (protein)
chain: B3 chain with A270S
B7: D315A-D330A (protein)
chain: B3 chain with D181A, D196A, A270F
B8: F406L (protein)
chain: B3 chain with A270F, F272L
B9: S144D (protein)
chain: B3 chain with S10D, A270F
B10: G402I (protein)
chain: B3 chain with G268I, A270F
B11: S144A (protein)
chain: B3 chain with S10A, A270F
B12: D330A-T317E (protein)
chain: B3 chain with T183E, D196A, A270F
B13: G402A (protein)
chain: B3 chain with G268A, A270F
B14: S196D (protein)
chain: B3 chain with S62D, A270F
B15: G402Y (protein)
chain: B3 chain with G268Y, A270F
B16: C403P (protein)
chain: B3 chain with C269P, A270F
B17: G402Q (protein)
chain: B3 chain with G268Q, A270F
B18: T317S (protein)
chain: B3 chain with T183S, A270F
B19: ^402GCFNF^406YCSTL: Caspase-9 homodimerization domain mutant (SEQ ID NOS 95 and 100) (Casp-2) (protein, UniProt P55211 1-416, looked up, variant G402Y F404S N405T F406L)
chain: MDEADRRLLRRCRLRLVEELQVDQLWDALLSRELFRPHMIEDIQRAGSGSRRDQARQLIIDLETRGSQALPLFISCLEDTGQDMLASFLRTNRQAAKLSKPTLENLTPVVLRPEIRKPEVLRPETPRPVDIGSGGFGDVGALESLRGNADLAYILSMEPCGHCLIINNVNFCRESGLRTRTGSNIDCEKLRRRFSSLHFMVEVKGDLTAKKMVLALLELAQQDHGALDCCVVVILSHGCQASHLQFPGAVYGTDGCPVSVEKIVNIFNGTSCPSLGGKPKLFFIQACGGEQKDHGFEVASTSPEDESPGSNPEPDATPFQEGLRTFDQLDAISSLPTPSDIFVSYSTFPGFVSWRDPKSGSWYVETLDDIFEQWAHSEDLQSLLLRVANAVSVKGIYKQMPYCSTLLRKKLFFKTS
B20: ^402GCFNF^406CIVSM: Caspase-9 homodimerization domain mutant (SEQ ID NOS 95 and 101) (Casp-3) (protein, UniProt P55211 1-416, looked up, variant G402C C403I F404V N405S F406M)
chain: B19 chain with Y402C, C403I, S404V, T405S, L406M
B21: ^402GCFNF^406QPTFT: Caspase-9 homodimerization domain mutant (SEQ ID NOS 95 and 102) (Casp-8) (protein, UniProt P55211 1-416, looked up, variant G402Q C403P F404T N405F F406T)
chain: B19 chain with Y402Q, C403P, S404T, T405F, L406T

Positions count from the first letter of the chain named. In names and notes the source's numbering stands.

One test deals with T1, PRAME peptide on HLA-A*02:01. The test can be described thus: multimer staining.
Conditions: not given
Take B1: the binding result is listed as “recognises”.

On to B2, for which the binding result is “recognises”.

Another test relates to chimeric Caspase-9 polypeptide. The test can be described thus: Caspase mutant classes and basal activity (Table 3). The class given is cell-based, human. Particulars: class heading of Table 3.
Chain of chimeric Caspase-9 polypeptide (as listed by the source, change not shown): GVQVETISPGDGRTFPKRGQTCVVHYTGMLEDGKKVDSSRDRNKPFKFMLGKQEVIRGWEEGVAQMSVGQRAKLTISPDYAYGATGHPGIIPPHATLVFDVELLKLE
Take B3: the “Basal Activity” value is given as “dead”.

Regarding B4, the “Basal Activity” value is recorded as “dead”. Same read-out and setting: with B5 the entry was “dead”; with B6, “dead”. Same read-out and setting: next, B7: “dead”; B8: “dead”; B9: “Decreased”. Still for that read-out and setting: next, B10: “dead”; B11: “Decreased”. For the molecule B12, the “Basal Activity” value is listed as “dead”.

As to B13, the “Basal Activity” value is listed as “dead”. Take B14: the “Basal Activity” value is listed as “Decreased”. For B15, the “Basal Activity” value is recorded as “dead”. For B16, the “Basal Activity” value is recorded as “dead”. As to B17, the “Basal Activity” value was “dead”. On to B18, for which the “Basal Activity” value is recorded as “Decreased”. Same read-out and setting: next, B19: “dead”; B20: “dead”. The same measure, in the same setting: next, B21: “dead”.

For the origin of these results see patent US20160263155A1, “T CELL RECEPTORS DIRECTED AGAINST THE PREFERENTIALLY EXPRESSED ANTIGEN OF MELANOMA AND USES THEREOF” (LEIDEN UNIVERSITY MEDICAL CENTER, priority 2015, published 2016).
